Reference: publication PMC4347645

Target: desmoplakin (DP), endogenous (human (endogenous in HEK 293 and SCC9)) (UniProt P15924)
Experiment: proximity ligation

GSK3, endogenous in SCC9 cells, sequence (P49841 whole entry): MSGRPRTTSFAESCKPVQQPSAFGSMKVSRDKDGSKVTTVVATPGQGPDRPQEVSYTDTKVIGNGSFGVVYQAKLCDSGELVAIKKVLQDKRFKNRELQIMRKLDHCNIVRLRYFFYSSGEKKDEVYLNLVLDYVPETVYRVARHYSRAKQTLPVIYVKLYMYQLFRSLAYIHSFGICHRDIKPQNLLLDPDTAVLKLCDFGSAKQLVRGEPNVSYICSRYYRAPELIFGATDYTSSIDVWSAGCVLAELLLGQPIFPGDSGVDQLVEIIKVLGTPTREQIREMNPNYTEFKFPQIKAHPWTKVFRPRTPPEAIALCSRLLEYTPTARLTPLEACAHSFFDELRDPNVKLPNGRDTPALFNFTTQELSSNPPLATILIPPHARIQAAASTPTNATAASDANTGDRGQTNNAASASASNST
desmoplakin (DP), endogenous (human (endogenous in HEK 293 and SCC9)), sequence (P15924 whole entry): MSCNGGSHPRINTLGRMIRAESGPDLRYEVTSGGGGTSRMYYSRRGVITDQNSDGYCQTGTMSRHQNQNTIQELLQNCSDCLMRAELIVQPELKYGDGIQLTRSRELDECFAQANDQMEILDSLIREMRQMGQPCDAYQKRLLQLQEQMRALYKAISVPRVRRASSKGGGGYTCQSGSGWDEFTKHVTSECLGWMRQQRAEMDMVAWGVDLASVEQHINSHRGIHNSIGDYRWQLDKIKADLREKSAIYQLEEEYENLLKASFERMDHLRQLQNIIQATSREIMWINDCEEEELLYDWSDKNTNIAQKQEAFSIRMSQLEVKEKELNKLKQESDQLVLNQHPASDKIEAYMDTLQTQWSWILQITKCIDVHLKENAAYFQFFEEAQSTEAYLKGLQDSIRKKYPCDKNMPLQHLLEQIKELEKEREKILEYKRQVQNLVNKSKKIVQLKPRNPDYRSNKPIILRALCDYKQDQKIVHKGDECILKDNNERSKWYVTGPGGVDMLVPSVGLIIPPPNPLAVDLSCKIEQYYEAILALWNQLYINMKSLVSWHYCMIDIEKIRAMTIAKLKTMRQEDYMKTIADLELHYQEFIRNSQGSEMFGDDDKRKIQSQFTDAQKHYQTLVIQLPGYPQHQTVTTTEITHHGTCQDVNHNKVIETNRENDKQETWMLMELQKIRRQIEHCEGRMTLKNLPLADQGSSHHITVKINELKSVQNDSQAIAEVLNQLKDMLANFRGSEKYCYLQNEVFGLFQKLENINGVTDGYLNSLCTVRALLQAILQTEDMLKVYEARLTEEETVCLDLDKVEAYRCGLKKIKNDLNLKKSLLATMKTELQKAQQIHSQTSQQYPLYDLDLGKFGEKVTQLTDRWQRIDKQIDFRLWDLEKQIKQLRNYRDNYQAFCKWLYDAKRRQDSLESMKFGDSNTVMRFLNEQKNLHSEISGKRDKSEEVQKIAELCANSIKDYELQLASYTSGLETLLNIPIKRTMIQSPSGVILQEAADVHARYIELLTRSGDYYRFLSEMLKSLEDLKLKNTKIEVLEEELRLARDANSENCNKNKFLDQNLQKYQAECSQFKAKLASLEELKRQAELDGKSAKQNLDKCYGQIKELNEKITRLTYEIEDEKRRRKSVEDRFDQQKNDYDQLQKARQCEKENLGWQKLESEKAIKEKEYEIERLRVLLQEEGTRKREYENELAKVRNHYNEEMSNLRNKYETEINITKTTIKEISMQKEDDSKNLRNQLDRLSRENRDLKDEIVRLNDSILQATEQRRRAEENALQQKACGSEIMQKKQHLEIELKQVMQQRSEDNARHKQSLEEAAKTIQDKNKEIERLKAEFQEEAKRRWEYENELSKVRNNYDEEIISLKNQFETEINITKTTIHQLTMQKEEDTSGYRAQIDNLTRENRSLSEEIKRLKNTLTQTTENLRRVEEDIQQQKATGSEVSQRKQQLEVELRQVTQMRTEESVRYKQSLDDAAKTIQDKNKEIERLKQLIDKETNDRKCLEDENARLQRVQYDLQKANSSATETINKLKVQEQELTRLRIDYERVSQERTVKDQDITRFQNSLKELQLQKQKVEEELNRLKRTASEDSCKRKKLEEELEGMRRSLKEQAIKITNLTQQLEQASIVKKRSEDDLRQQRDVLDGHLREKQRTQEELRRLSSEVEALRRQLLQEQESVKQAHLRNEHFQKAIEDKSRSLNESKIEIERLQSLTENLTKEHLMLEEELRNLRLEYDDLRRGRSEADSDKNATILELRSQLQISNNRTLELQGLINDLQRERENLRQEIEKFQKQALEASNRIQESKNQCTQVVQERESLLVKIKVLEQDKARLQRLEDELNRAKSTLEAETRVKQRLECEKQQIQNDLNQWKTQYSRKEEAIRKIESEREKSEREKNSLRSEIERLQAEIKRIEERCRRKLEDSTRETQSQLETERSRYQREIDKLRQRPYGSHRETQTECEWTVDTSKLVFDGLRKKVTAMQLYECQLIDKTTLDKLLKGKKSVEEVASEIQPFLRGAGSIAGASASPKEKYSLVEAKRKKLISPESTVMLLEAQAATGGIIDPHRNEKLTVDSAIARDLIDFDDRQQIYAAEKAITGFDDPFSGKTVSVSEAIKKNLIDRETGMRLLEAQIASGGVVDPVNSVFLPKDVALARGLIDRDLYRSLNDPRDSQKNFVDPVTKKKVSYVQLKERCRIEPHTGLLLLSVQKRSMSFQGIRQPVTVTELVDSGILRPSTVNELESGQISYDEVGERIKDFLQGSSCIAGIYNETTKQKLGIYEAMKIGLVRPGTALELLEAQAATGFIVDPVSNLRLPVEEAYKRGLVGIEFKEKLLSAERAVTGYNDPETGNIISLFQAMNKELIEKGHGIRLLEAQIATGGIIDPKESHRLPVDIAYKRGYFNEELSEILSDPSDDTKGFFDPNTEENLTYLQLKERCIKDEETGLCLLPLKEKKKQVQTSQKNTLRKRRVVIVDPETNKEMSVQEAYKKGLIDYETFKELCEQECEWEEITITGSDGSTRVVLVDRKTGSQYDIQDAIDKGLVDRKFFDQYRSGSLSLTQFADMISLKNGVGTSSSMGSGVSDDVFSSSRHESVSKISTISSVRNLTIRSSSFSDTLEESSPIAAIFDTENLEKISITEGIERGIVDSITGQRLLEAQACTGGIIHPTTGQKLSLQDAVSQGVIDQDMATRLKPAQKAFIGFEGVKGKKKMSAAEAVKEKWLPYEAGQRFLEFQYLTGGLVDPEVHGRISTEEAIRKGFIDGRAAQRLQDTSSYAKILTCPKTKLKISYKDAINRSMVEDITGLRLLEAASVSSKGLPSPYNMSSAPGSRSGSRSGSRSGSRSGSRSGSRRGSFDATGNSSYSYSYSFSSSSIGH

PLA fluorescent dots, fold over negative control antibody pairings: 20 fold
Substance: GSK3, endogenous in SCC9 cells (from UniProt P49841 1-420) (enzyme)
